According to US20130344069A1 (SORRENTO THERAPEUTICS, published 2013):

What was measured:
[1] = biological target: T1, IGF1R on MCF7 breast cancer cells (UniProt P08069 31-1367, limits assumed); assay: flow cytometry on MCF7 cells, PE goat anti-human IgG secondary, median FL2-H, non-linear regression fit, the concentration axis is LogM
T1 construct: whole, on cells; Endogenous receptor on MCF7 cells; also called MCF7 cells expressing IGF1R
Experimental: (§1) This example illustrates in vitro data for anti-IGF1R antibodies cellular binding EC₅₀ measurements. […] In this example, the experimental procedure is as follows: 50,000 MCF7 breast cancer cells were aliquoted into the wells of a 96-well, v-bottom plate in 100 μl FACS Buffer (PBS+2% FBS). Cells were spun down, washed 1× with FACS Buffer, and then resuspended in 25 μl of antibody solution in triplicate. After 0.5 hr incubation, cells were washed 1× with FACS Buffer and resuspended in 50 μl PE-conjugated, goat anti-human IgG (γ-chain specific) secondary antibody (Southern Biotech Cat #2040-09). Cells were further incubated for 0.5 hr and then washed 1× with FACS Buffer. Cells were resuspended in 25 μl FACS Buffer and the median fluorescence intensity in the FL2-H channel was determined using the Intellicyt HTFC flow cytometer.
(§2) While these values range over orders of magnitude, all antibodies show strong, specific binding to MCF7 cells expressing IGF1R. Data was collected on the Intellicyt HTFC flow cytometer, processed using FlowJo software, and analyzed and plotted in Graph Pad Prizm using non-linear regression fit. Data points are shown as the median fluorescence intensity (MFI) of positively labeled cells +/− Std Error.

Insulin Receptor = Insulin Receptor (UniProt P06213-2 28-944, limits assumed); assay: ELISA, one condition
[2] = biological target: T1, IGF1R on MCF7 breast cancer cells; assay: cell-based or functional assay
rhIGF1R = biological target: T2, rhIGF1R (human, UniProt P08069 31-932, limits assumed); assay: BLI, Forte Bio Octet Red; B9 on anti-hIgG Fc capture sensor
T2 construct: Recombinant protein used in the Octet measurements; also called recombinant human IGF1R

[3] = biological target: T1, IGF1R on MCF7 breast cancer cells; assay: flow cytometry, binding to MCF7 cells, PE anti-human IgG detection
Experimental: as §1, §2

Chain of Insulin Receptor (P06213 other isoform, or with tags, fused parts or gaps limits assumed): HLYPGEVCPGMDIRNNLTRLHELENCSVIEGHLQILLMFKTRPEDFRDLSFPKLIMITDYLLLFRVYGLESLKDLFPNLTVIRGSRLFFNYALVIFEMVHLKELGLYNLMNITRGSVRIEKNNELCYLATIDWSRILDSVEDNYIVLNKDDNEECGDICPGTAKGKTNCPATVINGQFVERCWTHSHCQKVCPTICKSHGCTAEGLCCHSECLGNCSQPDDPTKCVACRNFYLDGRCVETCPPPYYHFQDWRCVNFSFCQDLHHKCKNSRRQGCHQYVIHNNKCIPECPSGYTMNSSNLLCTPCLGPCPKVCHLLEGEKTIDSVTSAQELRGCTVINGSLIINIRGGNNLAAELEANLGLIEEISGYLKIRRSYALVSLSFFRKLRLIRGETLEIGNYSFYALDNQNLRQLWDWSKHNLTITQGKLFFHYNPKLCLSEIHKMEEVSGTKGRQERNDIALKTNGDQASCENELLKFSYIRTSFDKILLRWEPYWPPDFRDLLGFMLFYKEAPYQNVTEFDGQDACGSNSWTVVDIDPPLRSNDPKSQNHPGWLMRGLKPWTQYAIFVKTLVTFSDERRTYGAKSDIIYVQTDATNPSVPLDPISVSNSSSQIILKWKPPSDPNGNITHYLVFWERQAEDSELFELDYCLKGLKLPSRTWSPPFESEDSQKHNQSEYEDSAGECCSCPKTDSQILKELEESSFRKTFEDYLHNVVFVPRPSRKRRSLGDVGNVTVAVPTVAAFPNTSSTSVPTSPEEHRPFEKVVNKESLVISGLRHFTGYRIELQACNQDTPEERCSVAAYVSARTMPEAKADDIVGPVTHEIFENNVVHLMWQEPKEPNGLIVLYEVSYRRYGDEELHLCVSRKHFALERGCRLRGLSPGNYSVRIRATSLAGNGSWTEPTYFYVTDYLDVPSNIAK
T1 sequence (P08069 31-1367 limits assumed): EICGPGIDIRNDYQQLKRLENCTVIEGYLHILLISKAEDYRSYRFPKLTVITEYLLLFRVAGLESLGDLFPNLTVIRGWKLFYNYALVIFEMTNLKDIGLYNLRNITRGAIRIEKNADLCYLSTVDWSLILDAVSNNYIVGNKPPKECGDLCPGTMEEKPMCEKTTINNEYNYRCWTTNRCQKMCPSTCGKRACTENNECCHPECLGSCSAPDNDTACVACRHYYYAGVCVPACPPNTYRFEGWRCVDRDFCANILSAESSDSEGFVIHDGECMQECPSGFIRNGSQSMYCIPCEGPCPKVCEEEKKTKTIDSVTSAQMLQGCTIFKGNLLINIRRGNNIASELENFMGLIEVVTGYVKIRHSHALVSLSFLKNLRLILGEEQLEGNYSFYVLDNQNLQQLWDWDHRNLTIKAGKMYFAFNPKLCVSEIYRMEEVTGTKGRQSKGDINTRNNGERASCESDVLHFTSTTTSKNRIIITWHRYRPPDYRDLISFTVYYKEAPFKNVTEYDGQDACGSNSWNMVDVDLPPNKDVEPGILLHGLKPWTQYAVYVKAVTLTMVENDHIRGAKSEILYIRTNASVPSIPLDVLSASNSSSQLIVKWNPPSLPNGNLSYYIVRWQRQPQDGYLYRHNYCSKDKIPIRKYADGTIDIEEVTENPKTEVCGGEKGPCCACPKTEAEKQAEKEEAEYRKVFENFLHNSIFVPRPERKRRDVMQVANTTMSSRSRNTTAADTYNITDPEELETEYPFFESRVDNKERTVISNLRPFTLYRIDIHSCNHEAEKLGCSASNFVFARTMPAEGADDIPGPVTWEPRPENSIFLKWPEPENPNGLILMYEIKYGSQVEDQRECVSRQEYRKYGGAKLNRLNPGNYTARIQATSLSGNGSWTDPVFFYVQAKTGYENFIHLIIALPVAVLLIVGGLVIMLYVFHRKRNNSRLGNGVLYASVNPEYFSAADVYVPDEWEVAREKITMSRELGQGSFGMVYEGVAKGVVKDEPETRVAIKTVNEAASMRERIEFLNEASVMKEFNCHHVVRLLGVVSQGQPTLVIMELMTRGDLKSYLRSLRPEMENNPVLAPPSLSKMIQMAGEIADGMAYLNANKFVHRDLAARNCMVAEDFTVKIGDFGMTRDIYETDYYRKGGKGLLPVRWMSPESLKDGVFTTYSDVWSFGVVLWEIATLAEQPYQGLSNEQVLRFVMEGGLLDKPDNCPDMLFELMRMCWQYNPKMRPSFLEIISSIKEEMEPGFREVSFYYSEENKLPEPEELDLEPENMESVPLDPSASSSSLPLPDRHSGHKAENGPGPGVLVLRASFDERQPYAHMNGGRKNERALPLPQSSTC
T2 sequence (P08069 31-932 limits assumed): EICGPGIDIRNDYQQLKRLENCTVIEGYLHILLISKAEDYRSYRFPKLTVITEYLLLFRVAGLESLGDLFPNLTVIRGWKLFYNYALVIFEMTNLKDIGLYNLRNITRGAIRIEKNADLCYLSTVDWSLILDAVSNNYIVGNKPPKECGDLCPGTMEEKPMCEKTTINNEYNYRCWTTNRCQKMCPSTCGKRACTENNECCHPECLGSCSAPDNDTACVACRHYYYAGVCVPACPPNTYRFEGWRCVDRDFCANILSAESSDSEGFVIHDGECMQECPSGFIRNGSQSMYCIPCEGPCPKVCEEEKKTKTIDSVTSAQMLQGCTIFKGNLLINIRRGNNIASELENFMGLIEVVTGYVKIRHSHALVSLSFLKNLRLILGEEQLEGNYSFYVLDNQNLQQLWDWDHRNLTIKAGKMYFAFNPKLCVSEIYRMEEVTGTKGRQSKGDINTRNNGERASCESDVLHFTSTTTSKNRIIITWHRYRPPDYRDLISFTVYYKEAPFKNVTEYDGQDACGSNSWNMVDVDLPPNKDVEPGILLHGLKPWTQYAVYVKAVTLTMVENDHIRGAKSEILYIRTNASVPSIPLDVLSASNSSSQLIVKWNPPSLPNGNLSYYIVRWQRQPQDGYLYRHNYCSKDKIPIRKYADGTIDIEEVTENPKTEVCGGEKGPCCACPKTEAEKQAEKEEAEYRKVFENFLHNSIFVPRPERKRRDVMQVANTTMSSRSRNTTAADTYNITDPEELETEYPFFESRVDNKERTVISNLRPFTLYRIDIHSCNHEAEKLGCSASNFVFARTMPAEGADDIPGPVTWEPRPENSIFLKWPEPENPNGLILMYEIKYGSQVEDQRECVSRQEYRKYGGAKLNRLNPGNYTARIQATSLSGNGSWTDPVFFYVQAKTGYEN

| Binder | EC50 [1] | binding result (Insulin Receptor) | IC50 of inhibition of IGF1-stimulated IGF1R auto-phosphorylation in MCF7 cells [2] | Kd (rhIGF1R) | EC50 [3] |
| --- | --- | --- | --- | --- | --- |
| anti-IGF1R antibody B10 (antibody, V domains shown, Fully human antibody of an IgG class; also called clone B10) VH: QVQLVQSGAEVKKPGASVKVSCKGSGYNFPTQAIHWVRQAPGQRLEWMGWTNTANGNAKYSQKFQGRVTITRDTYASTDYMELSSLTSEDTAIYYCTRDRFTGSGTYGMDVWGQGTTVTVSS VL: SYELMQPSSVSVSPGQTARITCSGDLLTRRYARWFQQKPGQAPLLIIYRDTVRPSGIPERFSASSSGATITLTISGAQLEDEADYYCYSATDNNVVFGGGTKLTVL | 5.83 nM | no binding (tested: not given) | – | – | – |
| anti-IGF1R antibody C8 (antibody, V domains shown, Fully human antibody of an IgG class; also called clone C8) VH: QVQLVQSGAEVKKPGSSVKVSCKASGGSFNSFSISWVRQAPGQGLEWMGGITPMFGIGDNAQKFQDRVAITADESMSTFYMELSNLRFEDTAMYFCAREVGGLGFDVWGQGTTVTVSS VL: VIWMTQSPSSLSASVGDRVTFTCQASQHISKYLNWYQQKPGKAPKLLIYDASNLETGVPSRFSGSGSATDFTLTISSLQPEDFATYYCQQSYLTSYTFGQGTKVDIK | 16.1 nM | no binding (tested: not given) | – | – | – |

These reach a lower EC50 [1]. Values come first.

| EC50 [1] | binding result (Insulin Receptor) | IC50 of inhibition of IGF1-stimulated IGF1R auto-phosphorylation in MCF7 cells [2] | Kd (rhIGF1R) | EC50 [3] | Binder |
| --- | --- | --- | --- | --- | --- |
| 0.705 nM | – | – | – | – | anti-IGF1R antibody A6 (antibody, V domains shown, also called clone A6) VH: QVQLVQSGAEVMKPGASVKVSCKASGYTFTSYGISWVRQAPGQGLEWMGWISAYNGNTNYAQMLQGRVTMTTDTSTSTAYMELRSLRSDDTAVYYCARRGLSSYYYGMDVWGQGTTVTVSS VL: QPVLTQPPSVSAAPGQKVTISCSGGTSNVANNYVSWYQQLPGTAPKLLIYGNSNRPSGVPDRFSGSKSGTSASLAITGLQAEDEADYYCQSYDTSLSGYVFGSGTKVTVL |
| 0.0374 nM | no binding (tested: not given) | 0.094 nM | 1.25 nM | 0.0037 nM | anti-IGF1R antibody B9 (antibody, V domains shown, Fully human antibody of an IgG class (captured on an anti-hIgG Fc sensor, detected with anti-human IgG); also called clone B9) VH: EVQLLESGGGLVQPGGSLRLSCAASGFTFSSYEMNWVRQAPGKGLEWVSYISTGDSTRSYADSVRGRFTISRDNAKNSLYLQMNSLRAEDTAVYYCARESGTWYGGWYFDLWGRGTLVTVSS VL: QSVVTQPPSVSAAPGQKVTISCAGSTSNIGNNFVSWYQQLPGTAPKLLIYDNNKRPSEIPDRFSGSKSGTSATLGITGLQTGDEADYYCVTWDSSLSVVLFGGGTKVTVL |
